# Assay results as given in patent publication US20200024610.
# Columns and labels:
# Assay in all cases: cell_activity
# [1] = test system: TALEN 3' monomer for SEQ 93 site (synthetic construct); conditions: pair with p3; corn protoplasts; unmethylated region
# [2] = test system: TALEN 5' monomer for SEQ 35 site (synthetic construct); conditions: pair with p2; corn protoplasts; unmethylated region
# [3] = test system: TALEN 3' monomer for SEQ 94 site (synthetic construct); conditions: pair with p1; corn protoplasts; unmethylated region
# [4] = test system: TALEN 5' monomer for SEQ 34 site (synthetic construct); conditions: pair with p4; corn protoplasts; unmethylated region
sequence,measurement,setting,value
TCTACTAAAGAGGTAGCAC (double strand) [TALEN site 93],activity (% integration),[1],7
TCTCCTATCATAACGTTTG (double strand) [TALEN site 35],activity (% integration),[2],16
TGAGTTTGAGACCCACCTG (double strand) [TALEN site 94],activity (% integration),[3],16
TCGTGTGACTGCTCCCAAA (double strand) [TALEN site 34],activity (% integration),[4],7
